Measurements published in article PMC8896826, “Cellular assays identify barriers impeding iron-sulfur enzyme activity in a non-native prokaryotic host” (eLife, 2022).

Biological target: T1, tryptophan 2-C-methyltransferase (TsrM) from Streptomyces laurentii (Streptomyces laurentii, UniProt C0JRZ9 1-599)
T1 construct: TsrM, tryptophan 2-C-methyltransferase of the thiostrepton synthesis pathway, Streptomyces laurentii; As purified it holds 0.9 cobalamin and 3.5 Fe per monomer ([4Fe-4S] cluster); The methods describe no TEV cleavage for TsrM, so the His-tag was probably still on the protein; also called cobalamin-dependent rSAM methyltransferase TsrM; source: E. coli BL21(DE3), coexpressed with the Btu operon, …
T1 sequence (looked up): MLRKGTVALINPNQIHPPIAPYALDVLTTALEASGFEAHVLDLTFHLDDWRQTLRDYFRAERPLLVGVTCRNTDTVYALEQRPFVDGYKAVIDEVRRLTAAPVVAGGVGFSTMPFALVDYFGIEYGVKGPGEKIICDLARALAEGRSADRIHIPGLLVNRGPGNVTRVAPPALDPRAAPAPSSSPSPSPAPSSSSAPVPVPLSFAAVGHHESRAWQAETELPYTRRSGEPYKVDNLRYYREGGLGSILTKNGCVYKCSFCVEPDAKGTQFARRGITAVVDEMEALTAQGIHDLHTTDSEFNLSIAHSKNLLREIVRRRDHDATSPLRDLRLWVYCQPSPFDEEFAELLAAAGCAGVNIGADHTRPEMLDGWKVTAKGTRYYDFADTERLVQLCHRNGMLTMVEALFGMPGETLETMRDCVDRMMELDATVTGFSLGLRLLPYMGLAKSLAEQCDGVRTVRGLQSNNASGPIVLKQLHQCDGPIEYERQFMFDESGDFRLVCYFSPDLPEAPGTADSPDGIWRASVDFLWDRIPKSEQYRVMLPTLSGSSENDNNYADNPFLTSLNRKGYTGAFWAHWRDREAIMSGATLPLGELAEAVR
Assay: BLI; biotinylated ferredoxins (10 µg/mL) bound to streptavidin biosensors, plunged into TsrM solution at various concentrations (80 s association, 60 s dissociation); BLItz system in an anaerobic chamber (O2 <2 ppm); 25 mM Hepes pH 7.5, 300 mM KCl, 5% glycerol with Tween 20 and BSA
Details: both partners purified

Kd: 40 µM
B1: Streptomyces cattleya ferredoxin Fdx1 (natural protein, UniProt F8K3M7 1-106, looked up)
chain: MTYVIAQPCVDVKDKACIEECPVDCIYEGQRSLYIHPDECVDCGACEPVCPVEAIFYEDDTPEEWKDYYKANVEFFDELGSPGGASKLGLIERDHPFIAALPPQNG
modifications: biotin (incubation with one equivalent of NHS-PEG4-Biotin)
notes: ferredoxin Fdx1 of Streptomyces cattleya, GenBank AEW96347.1; 7.4 Fe atoms per monomer after reconstitution (two [4Fe-4S] clusters); also called double-cluster [4Fe-4S] ferredoxin; not shown: His-tag, N-terminal, cleaved
